Reference: patent publication US20250114463A1, “LIVER-TARGETED DRUG AND USE THEREOF” (HANMI PHARM. CO., LTD., priority 2021, published 2025)
Bridges are numbered along the chain shown (N, C = ends). Where no end group is shown, it is not given here. [ ]: non-standard residue; d: D form. The star is where a group is joined. Acetyl(2-(4-imidazolyl)) = O=C(Cc1c[nH]cn1)*; Aib = CC(C)(N)C(=O)O

How the values were obtained:
Assay in all cases: cell-based or functional assay
[1] = target: human GLP-1 receptor (human, UniProt P43220 24-463)
[2] = target: human GCG receptor (human, UniProt P47871 26-477)
Chain of human GCG receptor (P47871 26-477): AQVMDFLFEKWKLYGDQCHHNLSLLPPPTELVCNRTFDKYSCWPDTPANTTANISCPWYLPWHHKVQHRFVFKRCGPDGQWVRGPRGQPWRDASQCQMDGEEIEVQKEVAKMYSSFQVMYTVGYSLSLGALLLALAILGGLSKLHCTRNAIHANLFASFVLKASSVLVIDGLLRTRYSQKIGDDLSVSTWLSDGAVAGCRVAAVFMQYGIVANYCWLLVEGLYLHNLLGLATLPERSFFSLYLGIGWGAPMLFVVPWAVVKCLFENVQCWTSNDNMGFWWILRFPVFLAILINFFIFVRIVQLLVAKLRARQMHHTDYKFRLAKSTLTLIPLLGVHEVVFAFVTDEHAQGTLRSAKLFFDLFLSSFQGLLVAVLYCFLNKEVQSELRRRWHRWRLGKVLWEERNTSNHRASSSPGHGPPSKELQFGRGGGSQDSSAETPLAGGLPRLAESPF

[3] = target: T1, human GIP receptor (human, UniProt P48546 22-466)
T1 sequence (looked up): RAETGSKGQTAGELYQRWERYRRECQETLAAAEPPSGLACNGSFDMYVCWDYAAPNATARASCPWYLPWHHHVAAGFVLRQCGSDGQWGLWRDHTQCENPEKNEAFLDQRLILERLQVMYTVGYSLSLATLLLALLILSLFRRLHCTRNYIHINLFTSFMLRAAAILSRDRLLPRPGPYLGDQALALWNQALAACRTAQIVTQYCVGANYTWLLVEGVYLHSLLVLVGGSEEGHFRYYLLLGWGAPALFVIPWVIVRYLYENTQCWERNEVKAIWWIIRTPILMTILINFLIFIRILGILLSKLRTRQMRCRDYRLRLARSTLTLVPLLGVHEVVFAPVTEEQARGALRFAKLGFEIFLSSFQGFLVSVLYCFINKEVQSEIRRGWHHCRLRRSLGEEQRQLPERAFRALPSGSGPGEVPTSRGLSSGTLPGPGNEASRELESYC

Binder: Y[Aib]QGTFTSDYSKYLDECRAKEFVQWLLAQKGKKNDWKHNIT (bridge 16-20; not fully specified (C-terminus)) [triple agonist of SEQ ID NO: 23]
- in vitro Activity Compared to Native Peptide (%), vs GLP-1 [1]: 4.01%
- in vitro Activity Compared to Native Peptide (%), vs Glucagon [2]: 9.3%
- in vitro Activity Compared to Native Peptide (%), vs GIP [3]: < 0.1%

Binder: H[Aib]QGTFTSDVSSYLLGQAAKQFIAWLVKGGGPSSGAPPPSC-NH2 [triple agonist of SEQ ID NO: 3]
- in vitro Activity Compared to Native Peptide (%), vs GLP-1 [1]: 1.8%
- in vitro Activity Compared to Native Peptide (%), vs Glucagon [2]: < 0.1%
- in vitro Activity Compared to Native Peptide (%), vs GIP [3]: < 0.1%

Binder: [Acetyl(2-(4-imidazolyl))]GQGTFTSDLSIQYDSEHQRDFIEWLKDTGPSSGAPPPSHG-NH2 [triple agonist of SEQ ID NO: 19]
- in vitro Activity Compared to Native Peptide (%), vs GLP-1 [1]: < 0.1%
- in vitro Activity Compared to Native Peptide (%), vs Glucagon [2]: < 0.1%
- in vitro Activity Compared to Native Peptide (%), vs GIP [3]: < 0.1%

Binder: [Acetyl(2-(4-imidazolyl))]GQGTFTSDLSKQMDSERAREFIEWLKNTGPSSGAPPPSHG-NH2 [triple agonist of SEQ ID NO: 18]
- in vitro Activity Compared to Native Peptide (%), vs GLP-1 [1]: < 0.1%
- in vitro Activity Compared to Native Peptide (%), vs Glucagon [2]: < 0.1%
- in vitro Activity Compared to Native Peptide (%), vs GIP [3]: < 0.1%

Binder: Y[Aib]QGTFTSDYSKYLDECRAKEFVQWLKNGGPSSGAPPPS (bridge 16-20; not fully specified (C-terminus)) [triple agonist of SEQ ID NO: 24]
- in vitro Activity Compared to Native Peptide (%), vs GLP-1 [1]: 41.2%
- in vitro Activity Compared to Native Peptide (%), vs Glucagon [2]: 9.3%
- in vitro Activity Compared to Native Peptide (%), vs GIP [3]: < 0.1%

Binder: Y[Aib]QGTFTSDYSKCLDEKRAKEFVQWLLDHHPSSGQPPPS-NH2 (bridge 16-20) [triple agonist of SEQ ID NO: 22]
- in vitro Activity Compared to Native Peptide (%), vs GLP-1 [1]: 20.1%
- in vitro Activity Compared to Native Peptide (%), vs Glucagon [2]: 140%
- in vitro Activity Compared to Native Peptide (%), vs GIP [3]: 59.7%

Binder: [Acetyl(2-(4-imidazolyl))]GQGTFTSDLSKQMDEERAREFIEWLLAQKPSSGAPPPSHG-NH2 [triple agonist of SEQ ID NO: 17]
- in vitro Activity Compared to Native Peptide (%), vs GLP-1 [1]: 0.2%
- in vitro Activity Compared to Native Peptide (%), vs Glucagon [2]: < 0.1%
- in vitro Activity Compared to Native Peptide (%), vs GIP [3]: < 0.1%

Binder: [Acetyl(2-(4-imidazolyl))]GQGTFTSDLSIQYEEEAQQDFVEWLKDTGPSSGAPPPSHG-NH2 [triple agonist of SEQ ID NO: 20]
- in vitro Activity Compared to Native Peptide (%), vs GLP-1 [1]: < 0.1%
- in vitro Activity Compared to Native Peptide (%), vs Glucagon [2]: < 0.1%
- in vitro Activity Compared to Native Peptide (%), vs GIP [3]: < 0.1%

Binder: Y[Aib]QGTFTSDYSKYLDECRAKEFVQWLLDHHPSSGQPPPS-NH2 (bridge 16-20; also: ring type not given here) [triple agonist of SEQ ID NO: 21]
- in vitro Activity Compared to Native Peptide (%), vs GLP-1 [1]: 17.8%
- in vitro Activity Compared to Native Peptide (%), vs Glucagon [2]: 267%
- in vitro Activity Compared to Native Peptide (%), vs GIP [3]: 22.7%

Binder: [Acetyl(2-(4-imidazolyl))]GQGTFTSDLSKQMDSEAQQLFIEWLKNGGPSSGAPPPSHG-NH2 [triple agonist of SEQ ID NO: 16]
- in vitro Activity Compared to Native Peptide (%), vs GLP-1 [1]: 2.1%
- in vitro Activity Compared to Native Peptide (%), vs Glucagon [2]: < 0.1%
- in vitro Activity Compared to Native Peptide (%), vs GIP [3]: < 0.1%
